Measured values as given in publication PMC5520896, “HIV integrase inhibitor, Elvitegravir, impairs RAG functions and inhibits V(D)J recombination” (Cell Death & Disease, 2017).
Positions count from the first letter of the chain named.

Experiments:
[1] = target: T1, RAG1 central domain mutant CD-DD (Mus musculus, UniProt P15919, D600A/D708A); assay: biolayer interferometry (biotinylated CD-DD on SSA sensors); format: binding
T1 construct: central domain (amino acids 528–760) with point mutations D600A/D708A
T1 sequence (P15919 528-760 D600A/D708A): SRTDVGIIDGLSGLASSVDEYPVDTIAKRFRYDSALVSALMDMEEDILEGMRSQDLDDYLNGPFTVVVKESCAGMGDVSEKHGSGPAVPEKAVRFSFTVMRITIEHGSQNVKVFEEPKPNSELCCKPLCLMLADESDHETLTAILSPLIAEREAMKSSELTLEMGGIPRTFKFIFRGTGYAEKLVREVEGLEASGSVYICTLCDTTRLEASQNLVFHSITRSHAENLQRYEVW

[2] = target: T2, RAG1 central domain (Mus musculus, UniProt P15919); assay: biolayer interferometry (biotinylated central domain on SSA sensors); also circular dichroism, and inhibition of purified cRAG binding, cleavage and hairpin formation
T2 construct: central domain (amino acids 528–760)
T2 sequence (P15919 528-760): T1 sequence (P15919 528-760 D600A/D708A) with A73D, A181D

[3] = target: T3, MBP-core RAG1 (cRAG1);MBP-core RAG2 (cRAG2) (;, UniProt P15919;P21784 384-1040;1-383, |); assay: EMSA; 5 mM Ca2+, Raltegravir 0.1-0.5 mM (no significant effect); 22.5 mM MOPS-KOH pH 7.0, 20% DMSO, 2.2 mM DTT, 50 mM K-glutamate, 2% glycerol, 100 ng/ml BSA, 5 mM CaCl2, 100 ng RAG, 2 h 25 C, then 0.01% glutaraldehyde fixation 37 C 10 min; 6% native PAGE; details: protein: recombinant;recombinant; tags: N-terminal MBP;N-terminal MBP; chain copies: 2;2; label: 5'-32P on AKN46; blunt ends, internal 6-nt CCCCCC/CCCCCC bubble flanked by 15 bp each side
T3 sequence 1: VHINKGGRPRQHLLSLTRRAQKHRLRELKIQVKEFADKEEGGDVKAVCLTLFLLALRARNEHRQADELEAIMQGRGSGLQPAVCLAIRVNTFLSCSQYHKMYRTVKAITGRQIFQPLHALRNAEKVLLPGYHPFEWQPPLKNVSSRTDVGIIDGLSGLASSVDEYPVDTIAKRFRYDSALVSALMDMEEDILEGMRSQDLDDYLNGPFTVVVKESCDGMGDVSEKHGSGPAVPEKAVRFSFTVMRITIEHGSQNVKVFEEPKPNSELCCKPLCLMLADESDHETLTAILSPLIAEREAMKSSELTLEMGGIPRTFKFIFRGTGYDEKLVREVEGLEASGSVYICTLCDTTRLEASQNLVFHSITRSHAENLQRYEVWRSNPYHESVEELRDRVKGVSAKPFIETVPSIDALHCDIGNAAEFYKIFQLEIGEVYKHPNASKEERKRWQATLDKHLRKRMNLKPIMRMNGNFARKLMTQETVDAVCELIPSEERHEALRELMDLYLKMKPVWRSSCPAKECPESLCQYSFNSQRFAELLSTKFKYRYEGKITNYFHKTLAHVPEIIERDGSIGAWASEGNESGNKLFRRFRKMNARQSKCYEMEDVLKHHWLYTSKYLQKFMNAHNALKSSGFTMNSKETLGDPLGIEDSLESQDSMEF
T3 sequence 2: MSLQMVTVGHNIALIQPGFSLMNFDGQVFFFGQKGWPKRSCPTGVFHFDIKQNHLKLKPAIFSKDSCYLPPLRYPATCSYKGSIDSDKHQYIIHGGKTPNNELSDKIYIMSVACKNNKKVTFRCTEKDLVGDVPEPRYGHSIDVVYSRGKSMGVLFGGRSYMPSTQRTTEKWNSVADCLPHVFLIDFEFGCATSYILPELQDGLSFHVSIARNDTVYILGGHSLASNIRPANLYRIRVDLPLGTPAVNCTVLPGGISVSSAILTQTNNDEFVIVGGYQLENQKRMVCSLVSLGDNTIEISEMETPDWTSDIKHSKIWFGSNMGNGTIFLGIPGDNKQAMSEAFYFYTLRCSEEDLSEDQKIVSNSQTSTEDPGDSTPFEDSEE

[4] = target: T3, MBP-core RAG1 (cRAG1);MBP-core RAG2 …; assay: EMSA; 5 mM Ca2+, no inhibitor; 22.5 mM MOPS-KOH pH 7.0, 20% DMSO, 2.2 mM DTT, 50 mM K-glutamate, 2% glycerol, 100 ng/ml BSA, 5 mM CaCl2, 100 ng RAG, 2 h 25 C, then 0.01% glutaraldehyde fixation 37 C 10 min; 6% native PAGE; details: protein: recombinant;recombinant; tags: N-terminal MBP;N-terminal MBP; chain copies: 2;2; label: 5'-32P on AKN1; 1-nt 5' overhang at each end (49 bp)
[5] = target: T4, MBP-core RAG1 (cRAG1) (UniProt P15919 384-1040); assay: EMSA; 5 mM Ca2+; lower band assigned to RAG1 alone; 22.5 mM MOPS-KOH pH 7.0, 20% DMSO, 2.2 mM DTT, 50 mM K-glutamate, 2% glycerol, 100 ng/ml BSA, 5 mM CaCl2, 100 ng RAG, 2 h 25 C, then 0.01% glutaraldehyde fixation 37 C 10 min; 6% native PAGE; details: protein: recombinant; tags: N-terminal MBP; chain copies: 2; label: 5'-32P on AKN1; 1-nt 5' overhang at each end (49 bp)
T4 sequence: T3 sequence 1

**Q.** `COc1cc2c(cc1Cc1cccc(Cl)c1F)c(=O)c(C(=O)O)cn2[C@H](CO)C(C)C` [EVG, Elvitegravir] was tested. Which Kd [1] did it give?
**A.** 43.7 ± 3 µM

**Q.** What about the Kd [2] of the same molecule?
**A.** 32.5 ± 2.9 µM

B1: (C/C)6 bubble heteroduplex (AKN46/AKN20) (mixed)
DNA 1: GACCTGAGGGCGAGCCCCCCCCGAGTAACTTAACAG
DNA 2: CTGTTAAGTTACTCGCCCCCCGCTCGCCCTCAGGTC
**Q.** Does B1 bind [3]?
**A.** binds

B2: 12RSS (AKN1/AKN2) (dsDNA)
DNA 1: GATCAGCTGATAGCTACCACAGTGCTACAGACTGGAACAAAAACCCTGCT
DNA 2: TAGCAGGGTTTTTGTTCCAGTCTGTAGCACTGTGGTAGCTATCAGCTGAT
**Q.** Does B2 bind [4]?
**A.** binds

**Q.** Does B2 bind [5]?
**A.** binds
